Reference: IntAct's records for PubMed 22927794

B1: Long arms of the bivalent protein 1 (Caenorhabditis elegans), Q17604 (parent)
chain: MVSHKKNDRPRPLWILKIHKRLSLFEFKRYATGIGKDDGQDISWVLKGNAKNNVYQVTVETMENCETDECKKVIWVPDELAESTGTMFEDFKEDQPQESVSSISNNEANWGSSVNELDENYEKMQKEETFDPYDSDSDTSEDSDFDEDFEDSDKTMCSGQS

Variants of: B1
Settings: with glc7b_caeel gsp-2, P48727
Sequence of glc7b_caeel gsp-2, P48727 (P48727 whole entry): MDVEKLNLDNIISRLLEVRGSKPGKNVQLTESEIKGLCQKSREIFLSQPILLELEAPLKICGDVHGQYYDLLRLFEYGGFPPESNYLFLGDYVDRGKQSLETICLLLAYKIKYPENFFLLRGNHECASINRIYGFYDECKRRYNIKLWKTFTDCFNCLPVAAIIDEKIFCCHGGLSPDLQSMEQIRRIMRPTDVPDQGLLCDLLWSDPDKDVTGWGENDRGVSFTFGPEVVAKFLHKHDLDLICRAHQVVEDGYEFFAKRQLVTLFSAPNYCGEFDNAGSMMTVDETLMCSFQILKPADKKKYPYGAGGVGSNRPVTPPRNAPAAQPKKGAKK

| Variant | effect of a mutation on the interaction |
| --- | --- |
| MVSHKKNDRPRPLWILKIHKRLSLFEFKRYATGIGKDDGQDISWVLKGNAKNNVYQVTVETMENCETDECKKAIAVPDELAESTGTMFEDFKEDQPQESVSSISNNEANWGSSVNELDENYEKMQKEETFDPYDSDSDTSEDSDFDEDFEDSDKTMCSGQS | increasing interaction strength |

Variants of: B1
Settings: with glc7a_caeel gsp-1, Q27497
Sequence of glc7a_caeel gsp-1, Q27497 (Q27497 whole entry): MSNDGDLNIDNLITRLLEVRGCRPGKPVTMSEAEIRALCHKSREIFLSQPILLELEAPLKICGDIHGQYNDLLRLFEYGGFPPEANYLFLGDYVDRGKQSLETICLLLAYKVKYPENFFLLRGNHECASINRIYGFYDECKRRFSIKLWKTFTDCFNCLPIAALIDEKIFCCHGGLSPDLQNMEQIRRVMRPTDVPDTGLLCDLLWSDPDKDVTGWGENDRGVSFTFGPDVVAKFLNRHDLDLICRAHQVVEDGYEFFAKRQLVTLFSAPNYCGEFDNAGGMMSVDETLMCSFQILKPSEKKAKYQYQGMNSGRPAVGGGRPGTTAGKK

| Variant | effect of a mutation on the interaction |
| --- | --- |
| MVSHKKNDRPRPLWILKIHKRLSLFEFKRYATGIGKDDGQDISWVLKGNAKNNVYQVTVETMENCETDECKKAIAVPDELAESTGTMFEDFKEDQPQESVSSISNNEANWGSSVNELDENYEKMQKEETFDPYDSDSDTSEDSDFDEDFEDSDKTMCSGQS | decreasing interaction strength |
